Patent publication US20120042399A1

Legend:
[1] = molecular target: PASD1(2) (…) presented by the HHD chimeric monochain MHC class I molecule (human; mouse)
[2] = molecular target: PASD1(1) (…) presented by the HHD chimeric monochain MHC class I molecule (human; mouse)
[3] = molecular target: PASD1(1) (…) presented by the HHD chimeric monochain MHC class I molecule (human; mouse); remark: listed apart in the source
[4] = molecular target: PASD1(1) (…) presented by the HHD chimeric monochain MHC class I molecule (human; mouse); remark: listed apart in the source

In the case of “splenocytes from HHD mice vaccinated with p.DOM-PASD1(2) (cells without a defined receptor)”, the IFNγ-secreting spot-forming cells ex vivo (ELISPOT) (SFCs/10^6 cells) [1] is reported as 53.
“splenocytes from HHD mice vaccinated with p.DOM-PASD1(1) (cells without a defined receptor)” was tested, and the IFNγ-secreting spot-forming cells ex vivo (ELISPOT) (SFCs/10^6 cells) [2] was 117 and the specific lysis of KMS-12-HHD cells (51Cr release assay) [3] was < 40%.
In the case of “splenocytes from HHD mice vaccinated with p.DOM-PASD1FL (cells without a defined receptor)”, the IFNγ-secreting spot-forming cells ex vivo (ELISPOT) (SFCs/10^6 splenocytes) [4] is reported as 756.
